Assay results from patent US20050282239A1, “Cell-permeable enzyme activation reporter that can be loaded in a high throughput and gentle manner” (priority 2003, published 2005).
Ends that are not written are not given here.

Experiments:
cells = assay: Confocal microscopy of conjugate uptake; format: cell-based; conditions: same concentration for all conjugates
Text: The ability of the D- and L-arginine polymers to enhance trans-membrane transport was confirmed by confocal microscopy (see FIGS. 6A-F and Example 4).

Jurkat cells = assay: Michaelis-Menten kinetics of cellular uptake; format: cell-based, human; conditions: 4° C. (on ice), Lineweaver-Burk plots, incubation 30-240 seconds
Procedure: When cellular uptake of polymers of D- and L-arginine were analyzed by Michaelis-Menten kinetics (see Example 6), the rate of uptake by Jurkat cells was so efficient that precise Km values could only be obtained when the assays were carried out at 4° C. (on ice). Both the maximal rate of transport (Vmax) and the apparent affinity of the peptides for the putative receptor of the Michaelis constant (Km) were derived from Lineweaver-Burk plots of the observed fluorescence of Jurkat cells after incubation with varying concentrations of nonamers of D- and L-arginine for 30, 60, 120, and 240 seconds.

HT1080 cells = assay: CACE single-cell analysis: loading and release of cargo; format: cell-based, human
RBL cells = assay: as above; format: cell-based, rat; conditions: 750 nM extracellular
PKB [1] = molecular target: T1, PKB (Homo sapiens, UniProt P31749); assay: CACE: intracellular phosphorylation of PKB substrate in HT1080 cells; format: cell-based; conditions: cells with only two peaks
T1 construct: endogenous in cells; host or cells: HT1080 cells; HT1080/PTEN cells (engineered to over-express wild type PTEN, PKB itself not transfected)
Text: Since the properties of F-PKB (SEQ ID NO:17) microinjected into HT1080 cells have been well characterized, experiments were undertaken to compare the fate of F-PKB-C loaded as F-PKB-C-SS-TAT (SEQ ID NO:16) into HT1080 cells to that of the microinjected F-PKB (SEQ ID NO:17). When microinjected, the percentage of phosphorylated F-PKB depended on the relative, steady-state levels of both the kinases and phosphatases. This observation is shown in electrophoretic traces from cells loaded with F-PKB-C-SS-TAT (1 μM) (FIG. 6). A single asterisk denotes the migration time of F-PKB, and a double asterisk denotes the migration time of phosphorylated F-PKB from cells on the day of the experiment.
CACE has been previously described (Sims, Meredith et al. 1998; Meredith, Sims et al. 2000; Li, Wu et al. 2001). Briefly, cells were placed on an inverted fluorescence microscope stage (Diaphot 300, Nikon, Japan) and maintained at 37° C. with an objective heater (Bioptechs; Butler, Pa.) prior to lysis unless stated otherwise. The cells were continually washed with ECB maintained at 37° C. (unless otherwise indicated) with a flow rate of 1 ml/min and a total chamber volume of 0.5 ml. The inlet of a capillary (30 μm I.D., 360 μm O.D., 75 cm long) was positioned 10 μm above the cell. The inverted microscope was coupled to a pulsed Nd:YAG laser and a CE system (Sims, 1998). The CACE-based assay was performed as previously described (U, 2001; Meredith, 2000). Cells were always maintained in ECB when analyzed by the CACE.
CE was performed as described (Sims, Meredith et al. 1998), with the following modifications. The inner walls of the capillaries (30 μm I.D., 360 μm O.D.) were coated with poly(acrylate) (Wang, Hu et al. 2003). The outlet of the capillary was held at a negative potential of 18-21 kV, and the inlet reservoir was held at ground potential. Under these conditions, the current through the capillary was typically ˜36 μA. Solutions of standards were loaded into the capillary by gravitational fluid flow. The loaded volume was calculated from Poiseulle's equation and from contributions by spontaneous fluid displacement and diffusion (Weinberger, 2000; Fishman, 1994; Crank, 1989). To estimate the number of moles of peptide in an unknown solution or within a cell, the peak area from the electrophoretic trace of the solution or the cell was compared to that of a standard of known concentration separated by electrophoresis on the same day. A 1 pL cell volume and 100% peptide recovery was assumed in calculating intracellular peptide concentration (Meredith, Sims et al. 2000; Sims, Meredith et al. 1998). Analytes were detected by laser-induced fluorescence (Sims, Meredith et al. 1998).
Cells were incubated at room temperature for 5 minutes in 1% bovine serum albumin (BSA) in ECB, washed in ECB, and then incubated for 5 minutes at room temperature with a substrate conjugated to TAT(49-57). The cells were then washed with 1% BSA in ECB. Cells loaded with the disulfide conjugate were placed in supplement DMEM (10% FCS, 4 mM L-glutamine, 100 U/mL penicillin and 100 μg/mL streptomycin) and incubated at 37° C. in 5% CO2 for 20 minutes. Cells loaded with the photolabile conjugate were placed in supplemented DMEM and incubated at 37° C. in 5% CO2 for 10 minutes (unless stated otherwise) and were then illuminated with a UV light source for 10 seconds (a radiant energy/unit area of 2 kJ/m^2). The supplemented DMEM was exchanged and the cells were incubated another 10 minutes at 37° C. in 5% CO2. Just prior to analysis the cells were washed into ECB.

PKB [2] = molecular target: T1, PKB; assay: CACE: intracellular phosphorylation of PKB substrate in HT1080/PTEN cells; format: cell-based; conditions: 1 μM extracellular
Procedure: Previous investigators developed cleavable PTD-cargo conjugates by engineering a disulfide linkage between the two domains (Stein, Weiss et al. 1999; Hallbrink, Floren et al. 2001). […] TAT(49-57)(SEQ ID NO:2) was conjugated via a disulfide bond to cysteines added to substrate peptides for CamKII (F-CamKII-C; SEQ ID NO:13) or PKB (F-PKB-C; SEQ ID NO:14), denoted F-CamKII-C-SS-TAT (SEQ ID NO:15) and F-PKB-C-SS-TAT (SEQ ID NO:16), respectively. The TAT(49-57)-Conjugated substrates were incubated with cells (HT1080 or HT1080/PTEN cells) and the contents of the cells were analyzed by the CACE. […]
CACE has been previously described (Sims, Meredith et al. 1998; Meredith, Sims et al. 2000; Li, Wu et al. 2001). Briefly, cells were placed on an inverted fluorescence microscope stage (Diaphot 300, Nikon, Japan) and maintained at 37° C. with an objective heater (Bioptechs; Butler, Pa.) prior to lysis unless stated otherwise. […] Cells were always maintained in ECB when analyzed by the CACE.
(§1) CE was performed as described (Sims, Meredith et al. 1998), with the following modifications. […] The loaded volume was calculated from Poiseulle's equation and from contributions by spontaneous fluid displacement and diffusion (Weinberger, 2000; Fishman, 1994; Crank, 1989). […] Analytes were detected by laser-induced fluorescence (Sims, Meredith et al. 1998). […]

PKB [3] = molecular target: T2, PKB (Rattus norvegicus, UniProt P47196); assay: CACE: intracellular phosphorylation of PKB substrate in RBL cells; format: cell-based; conditions: 750 nM extracellular
T2 construct: endogenous in cells; host or cells: RBL-2H3 rat basophilic leukemia cells, with or without PIP3-histone
Procedure: To determine whether the F-PKB-C delivered to cells by addition of F-PKB-C-SS-TAT (SEQ ID NO:16) at a 750 nM extracellular concentration could also be phosphorylated after pharmacologic activation of PKB (rather than constitutively active PKB), PIP3-histone was added to RBL cells. […] The CACE was used to analyze the amount of phosphorylated F-PKB-C in the presence (15 μM) and absence of PIP3-histone added for 10 min to RBL cells loaded with F-PKB-C-SS-TAT (FIG. 6C,D).
CACE has been previously described (Sims, Meredith et al. 1998; Meredith, Sims et al. 2000; Li, Wu et al. 2001). Briefly, cells were placed on an inverted fluorescence microscope stage (Diaphot 300, Nikon, Japan) and maintained at 37° C. with an objective heater (Bioptechs; Butler, Pa.) prior to lysis unless stated otherwise. The cells were continually washed with ECB maintained at 37° C. (unless otherwise indicated) with a flow rate of 1 ml/min and a total chamber volume of 0.5 ml. […] Cells were always maintained in ECB when analyzed by the CACE.
as §1

[4] = tested on: F-CamKII-TAT (fluorescein-labeled CamKII substrate peptide conjugated to TAT(49-57) through a peptide bond)
recombinant CamKII = molecular target: T3, recombinant CamKII (Rattus norvegicus, UniProt P11275); assay: In vitro kinase assay, 32P phosphate incorporation; format: biochemical; conditions: peptides 5-60 μM, 30° C., 30 minutes
T3 construct: purchased Calbiochem (San Diego, Calif.) / EMD Biosciences (San Diego, Calif.)
Procedure: In addition to assessing the electrophoretic behavior of F-CamKII-TAT, the ability of this conjugated sequence to act as an efficient substrate for the CamKII enzyme was characterized. The amount of phosphate incorporated into the substrate peptide alone and into F-CamKII-TAT by CamKII was measured in vitro. In the range of measured peptide concentrations, 90% less phosphate was incorporated by the CamKII enzyme into F-CamKII-TAT compared to the peptide lacking the TAT(49-57) sequence. The kinetic properties of CamKII enzyme for the CamKII peptide substrate were degraded when the peptide was conjugated to TAT(49-57).
Peptides (5-60 μM) were phosphorylated in vitro by 100 units of recombinant CamKII (EMD Biosciences; San Diego, Calif.) in 20 mM Tris-HCl, 10 mM MgCl2, 0.5 mM dithiothreitol (DTT), and 0.1 mM Ethylenediaminetetraacetic acid-(EDTA, pH 7.5) with […], 2 mM CaCl2 and […] [[…]-^32P]-ATP. The final specific activity of the [[…]-^32P]-ATP was 100 cpm/pmole; the total reaction volume was 25 μL. The mixture was incubated at 30° C. for 30 minutes. The reaction was stopped by adding 45 μL ice-cold 10% (v/v) trichloroacetic acid, mixed with a vortex, centrifuged, and blotted onto P81 phosphocellulose paper. Phosphate incorporation was quantified with a liquid scintillation counter (LS 3801; Beckman Instruments; Irvine, Calif.)

T1 sequence (P31749 whole entry): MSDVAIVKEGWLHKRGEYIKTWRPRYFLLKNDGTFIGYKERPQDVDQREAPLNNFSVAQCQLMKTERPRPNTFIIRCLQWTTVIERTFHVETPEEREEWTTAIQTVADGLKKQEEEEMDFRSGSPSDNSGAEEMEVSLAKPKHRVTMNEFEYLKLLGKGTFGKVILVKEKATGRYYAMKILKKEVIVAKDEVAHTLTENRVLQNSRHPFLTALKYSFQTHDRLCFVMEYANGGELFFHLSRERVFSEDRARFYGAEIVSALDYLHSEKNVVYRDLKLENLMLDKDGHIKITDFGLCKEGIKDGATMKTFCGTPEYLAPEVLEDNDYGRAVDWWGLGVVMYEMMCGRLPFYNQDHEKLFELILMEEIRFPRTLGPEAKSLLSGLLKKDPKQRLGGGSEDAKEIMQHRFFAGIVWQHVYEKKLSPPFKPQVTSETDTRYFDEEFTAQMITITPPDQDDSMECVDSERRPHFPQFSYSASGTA
T2 sequence (P47196 whole entry): as the sequence (P31749 whole entry) above, with S2N, D46E, A50S, K112R, E117T, S137A, K389T, G410N, H415D counted along it

With “RKKRRQRRR [TAT(49-57), basic region of HIV TAT protein, residues 49-57]” the “fluorescence of cytosol by confocal microscopy” value (cells) was “only weak staining”, the Km (Jurkat cells) was 722 µM and the Vmax (Jurkat cells) was 0.38 µM/s.
For “Gly Arg Pro Arg Ala Ala Thr Phe Ala Glu Gly Cys Arg Lys Lys Arg Arg Gln Arg Arg Arg (Fluorescein-GRPRAATFAEGCRKKRRQRRR-NH2; not fully specified; printed as Gly Arg Pro Arg Ala Ala Thr Phe Ala Glu Gly Cys Arg Lys Lys Arg Arg Gln Arg Arg Arg; also: disulfide linkage between the PKB-Cys part and the TAT part (partner not shown)) [F-PKB-C-SS-TAT, F-PKB-C conjugated to TAT(49-57) via a disulfide bond]”, the “average amount of detected F-PKB-C” value (HT1080 cells; 215 nM extracellular) was 2.5e-19 ± 3e-20 mol, the “cytosolic concentration of free F-PKB-C” value (HT1080 cells; 215 nM extracellular) was roughly 250 nM and the “detectable F-PKB-C per cell” value (HT1080 cells; 1 μM extracellular) was 7e-19 ± 3e-20 mol. For the same substance, the “cytosolic concentration of free F-PKB-C” value (HT1080 cells; 1 μM extracellular, 1 pL cell volume assumed) was roughly 700 nM, the “detectable F-PKB-C per cell” value (RBL cells) was 1.4e-20 ± 1e-21 mol and the intracellular concentration (RBL cells) was roughly 14 nM. For the same substance, the “peptide present as phosphorylated F-PKB-C” value (PKB [1]) was 75±8%, the “peak of phosphorylated F-PKB-C” value (PKB [2]) was “no peak was present” and the F-PKB-C phosphorylated (PKB [3]; PIP3-histone 15 μM 10 min, n=4) was 39%±14%. For the same substance, the F-PKB-C phosphorylation (PKB [3]; cells not exposed to PIP3-histone) was “no phosphorylation”.
“Recombinant calcium-calmodulin activated kinase II (CamKII)” was tested, and the “phosphate incorporated into the peptide by CamKII in vitro (32P-ATP kinase assay), compared to the substrate peptide lacking TAT(49-57)” value [4] was 90% less phosphate was incorporated by the CamKII enzyme into F-CamKII-TAT compared to the peptide lacking the TAT(49-57) sequence.
“Lys Lys Ala Leu His Arg Gln Glu Thr Val Asp Ala Leu Arg Lys Lys Arg Arg Gln Arg Arg Arg (KKALHRQETVDALRKKRRQRRR-NH2; not fully specified (N-terminus); printed as Lys Lys Ala Leu His Arg Gln Glu Thr Val Asp Ala Leu Arg Lys Lys Arg Arg Gln Arg Arg Arg; also: fluorescein label, position not given here) [F-CamKII-TAT, F-CamKII conjugated to TAT(49-57) through a peptide bond]” was tested, and the “less phosphate incorporated by CamKII compared to the peptide lacking the TAT(49-57) sequence” value (recombinant CamKII) was 90%.
